The target in the assay is strep-HA3/B (Clostridium botulinum serotype B strain Okra). The assay is described as follows: SEC; […], PBS pH 6.0, 0.75 mL/min, […]. A general note: Size exclusion chromatography separates by hydrodynamic size, large species first.

Broadly, the stoichiometry N is the number of molecules, sites or subunits per partner or assembly.

For the substance strep-HA3/B (domain or fragment), the stoichiometry N worked out at 3.

Values taken from PMC12473987.
